From publication PMC9482650, “Quantitative fragmentomics allow affinity mapping of interactomes” (Nature Communications, 2022)
Blank lines part the entries; values can stand above or below the binder they belong to.

Tests used:
Test in all cases: holdup assay
Parameters in all cases: key: below the threshold = too weak to quantify, mostly under pKd 3.1 to 4
GRIP1_5, Q9Y3R0 = molecular target: T1, GRIP1_5, Q9Y3R0
T1 sequence (Q9Y3R0 568-668, limits assumed, looked up): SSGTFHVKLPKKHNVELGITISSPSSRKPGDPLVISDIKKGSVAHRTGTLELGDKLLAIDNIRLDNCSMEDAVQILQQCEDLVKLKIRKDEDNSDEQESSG

TIAM2, Q8IVF5 = molecular target: T2, TIAM2, Q8IVF5
T2 sequence (Q8IVF5 885-986, limits assumed, looked up): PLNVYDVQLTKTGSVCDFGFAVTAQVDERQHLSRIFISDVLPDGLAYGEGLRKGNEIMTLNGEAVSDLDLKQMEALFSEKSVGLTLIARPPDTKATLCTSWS

GRID2IP_2, A4D2P6 = molecular target: GRID2IP_2, A4D2P6
Chain of GRID2IP_2, A4D2P6 (A4D2P6 272-370): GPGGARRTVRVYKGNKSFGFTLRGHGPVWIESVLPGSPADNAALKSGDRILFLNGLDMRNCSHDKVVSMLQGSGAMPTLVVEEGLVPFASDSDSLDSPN

TX1BP3, O14907 = molecular target: T3, TX1BP3, O14907
T3 sequence (O14907 10-122, limits assumed, looked up): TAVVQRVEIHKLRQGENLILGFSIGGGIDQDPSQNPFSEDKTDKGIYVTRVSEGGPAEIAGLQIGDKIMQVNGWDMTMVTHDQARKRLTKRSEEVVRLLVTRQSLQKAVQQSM

FRMPD2_1, Q68DX3 = molecular target: FRMPD2_1, Q68DX3
Chain of FRMPD2_1, Q68DX3 (Q68DX3 770-861): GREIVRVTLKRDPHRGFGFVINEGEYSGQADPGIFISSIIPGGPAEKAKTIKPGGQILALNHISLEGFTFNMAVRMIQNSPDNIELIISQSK

SNTG2, Q9NY99 = molecular target: T4, SNTG2, Q9NY99
T4 sequence (Q9NY99 68-166, limits assumed, looked up): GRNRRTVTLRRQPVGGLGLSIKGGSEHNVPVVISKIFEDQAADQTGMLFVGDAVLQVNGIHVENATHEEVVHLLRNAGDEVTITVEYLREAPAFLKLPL

IL16_1, Q14005 = molecular target: IL16_1, Q14005
Chain of IL16_1, Q14005 (Q14005 210-306): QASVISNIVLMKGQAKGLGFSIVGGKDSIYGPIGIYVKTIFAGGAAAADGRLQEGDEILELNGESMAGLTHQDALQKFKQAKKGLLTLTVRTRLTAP

NHERF3_4, Q5T2W1 = molecular target: T5, NHERF3_4, Q5T2W1
T5 sequence (Q5T2W1 373-468, limits assumed, looked up): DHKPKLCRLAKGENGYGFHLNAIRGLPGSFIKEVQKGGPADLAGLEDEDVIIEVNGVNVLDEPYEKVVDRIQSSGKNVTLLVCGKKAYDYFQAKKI

LNX2_2, Q8N448 = molecular target: T6, LNX2_2, Q8N448
T6 sequence (Q8N448 334-432, limits assumed, looked up): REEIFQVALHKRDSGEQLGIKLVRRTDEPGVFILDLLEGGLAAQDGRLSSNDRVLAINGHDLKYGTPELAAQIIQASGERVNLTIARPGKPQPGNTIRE

MAGI2_3, Q86UL8 = molecular target: MAGI2_3, Q86UL8
Chain of MAGI2_3, Q86UL8 (Q86UL8 600-682): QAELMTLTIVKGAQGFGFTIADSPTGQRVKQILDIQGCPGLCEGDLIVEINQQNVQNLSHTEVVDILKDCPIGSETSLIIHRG

TJP1_2, Q07157 = molecular target: TJP1_2, Q07157
Chain of TJP1_2, Q07157 (Q07157 181-274): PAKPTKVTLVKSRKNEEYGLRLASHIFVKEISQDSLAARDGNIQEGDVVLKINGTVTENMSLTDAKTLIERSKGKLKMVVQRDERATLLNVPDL

SNTG1, Q9NSN8 = molecular target: T7, SNTG1, Q9NSN8
T7 sequence (Q9NSN8 52-150, limits assumed, looked up): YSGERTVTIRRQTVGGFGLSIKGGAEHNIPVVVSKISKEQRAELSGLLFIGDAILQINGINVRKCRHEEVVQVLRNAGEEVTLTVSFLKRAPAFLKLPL

SCRIB_2, Q14160 = molecular target: SCRIB_2, Q14160
Chain of SCRIB_2, Q14160 (Q14160 857-960): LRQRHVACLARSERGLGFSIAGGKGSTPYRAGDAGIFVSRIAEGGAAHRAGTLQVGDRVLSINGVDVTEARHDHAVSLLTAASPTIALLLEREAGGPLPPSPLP

MAGI2_2, Q86UL8 = molecular target: MAGI2_2, Q86UL8
Chain of MAGI2_2, Q86UL8 (Q86UL8 410-522): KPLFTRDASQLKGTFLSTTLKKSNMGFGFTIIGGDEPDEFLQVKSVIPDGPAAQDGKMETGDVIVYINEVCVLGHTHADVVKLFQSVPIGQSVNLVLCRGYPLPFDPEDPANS

MPDZ_12, O75970 = molecular target: T8, MPDZ_12, O75970
T8 sequence (O75970 1857-1958, limits assumed, looked up): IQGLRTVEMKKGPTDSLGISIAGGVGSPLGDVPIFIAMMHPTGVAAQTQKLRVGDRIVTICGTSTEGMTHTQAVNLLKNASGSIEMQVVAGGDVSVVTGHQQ

NOS1, P29475 = molecular target: NOS1, P29475
Chain of NOS1, P29475 (P29475 9-101): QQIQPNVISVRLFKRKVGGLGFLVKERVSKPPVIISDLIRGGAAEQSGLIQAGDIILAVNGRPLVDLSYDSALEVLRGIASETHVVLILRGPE

DLG4_3, P78352 = molecular target: DLG4_3, P78352
Chain of DLG4_3, P78352 (P78352 306-403): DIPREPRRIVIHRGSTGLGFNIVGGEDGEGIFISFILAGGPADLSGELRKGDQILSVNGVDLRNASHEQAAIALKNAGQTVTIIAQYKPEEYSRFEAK

FRMPD2_2, Q68DX3 = molecular target: FRMPD2_2, Q68DX3
Chain of FRMPD2_2, Q68DX3 (Q68DX3 944-1038): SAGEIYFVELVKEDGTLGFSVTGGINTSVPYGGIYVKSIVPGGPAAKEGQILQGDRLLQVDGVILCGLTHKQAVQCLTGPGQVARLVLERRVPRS

GRID2IP_1, A4D2P6 = molecular target: GRID2IP_1, A4D2P6
Chain of GRID2IP_1, A4D2P6 (A4D2P6 1-87): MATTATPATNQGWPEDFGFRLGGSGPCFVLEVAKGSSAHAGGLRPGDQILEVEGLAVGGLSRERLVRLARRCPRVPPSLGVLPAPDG

DLG5_1, Q8TDM6 = molecular target: DLG5_1, Q8TDM6
Chain of DLG5_1, Q8TDM6 (Q8TDM6 617-713): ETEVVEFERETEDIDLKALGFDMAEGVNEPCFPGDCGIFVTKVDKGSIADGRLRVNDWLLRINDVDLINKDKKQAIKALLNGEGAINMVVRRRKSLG

MAGI2_5, Q86UL8 = molecular target: MAGI2_5, Q86UL8
Chain of MAGI2_5, Q86UL8 (Q86UL8 915-1017): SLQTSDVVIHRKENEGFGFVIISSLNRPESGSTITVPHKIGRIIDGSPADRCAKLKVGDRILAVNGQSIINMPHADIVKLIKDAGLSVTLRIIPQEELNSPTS

PDZRN3_1, Q9UPQ7 = molecular target: T9, PDZRN3_1, Q9UPQ7
T9 sequence (Q9UPQ7 244-349, limits assumed, looked up): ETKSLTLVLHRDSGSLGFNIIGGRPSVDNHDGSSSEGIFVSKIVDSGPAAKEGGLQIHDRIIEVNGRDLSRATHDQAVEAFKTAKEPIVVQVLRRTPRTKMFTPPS

DLG4_2, P78352 = molecular target: DLG4_2, P78352
Chain of DLG4_2, P78352 (P78352 155-259): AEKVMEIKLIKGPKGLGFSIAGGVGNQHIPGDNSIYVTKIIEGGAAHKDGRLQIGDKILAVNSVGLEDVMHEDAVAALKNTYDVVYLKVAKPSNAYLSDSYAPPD

LDB3, O75112 = molecular target: LDB3, O75112
Chain of LDB3, O75112 (O75112 1-94): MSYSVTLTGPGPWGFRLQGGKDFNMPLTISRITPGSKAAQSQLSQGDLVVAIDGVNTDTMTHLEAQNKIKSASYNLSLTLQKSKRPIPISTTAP

MAGI3_2, Q5TCQ9 = molecular target: MAGI3_2, Q5TCQ9
Chain of MAGI3_2, Q5TCQ9 (Q5TCQ9 398-503): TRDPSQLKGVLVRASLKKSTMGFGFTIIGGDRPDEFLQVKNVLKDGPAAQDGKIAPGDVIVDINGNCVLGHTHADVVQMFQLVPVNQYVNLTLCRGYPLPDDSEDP

SYNJ2BP, P57105 = molecular target: T10, SYNJ2BP, P57105; details: plain residues with an end cap or a label only (N-terminal biotin on a linker: ttds)
T10 sequence (P57105 8-110, limits assumed, looked up): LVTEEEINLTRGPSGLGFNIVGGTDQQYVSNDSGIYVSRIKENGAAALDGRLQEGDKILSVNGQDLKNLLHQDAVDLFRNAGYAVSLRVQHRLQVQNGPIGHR

SNX27, Q96L92 = details: plain residues with an end cap or a label only (N-terminal biotin on a linker: ttds)
PARD3_3, Q8TEW0 = details: plain residues with an end cap or a label only (N-terminal biotin on a linker: ttds)
Chain of PARD3_3, Q8TEW0 (Q8TEW0 582-685): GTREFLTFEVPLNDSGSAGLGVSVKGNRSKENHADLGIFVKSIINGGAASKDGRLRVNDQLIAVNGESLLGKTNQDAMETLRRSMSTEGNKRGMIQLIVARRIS

[1] = plain residues with an end cap or a label only (N-terminal biotin on a linker: ahx)
[2] = plain residues with an end cap or a label only (N-terminal biotin on a linker: ttds)

pKd (GRIP1_5, Q9Y3R0; [1]): below the threshold
pKd (TIAM2, Q8IVF5; [1]): below the threshold
pKd (GRID2IP_2, A4D2P6; [1]): below the threshold
pKd (TX1BP3, O14907; [1]): below the threshold
pKd (FRMPD2_1, Q68DX3; [1]): below the threshold
pKd (SNTG2, Q9NY99; [1]): below the threshold
pKd (IL16_1, Q14005; [1]): below the threshold
pKd (NHERF3_4, Q5T2W1; [1]): below the threshold
pKd (LNX2_2, Q8N448; [1]): 4.64
pKd (MAGI2_3, Q86UL8; [1]): below the threshold
pKd (TJP1_2, Q07157; [1]): below the threshold
pKd (SNTG1, Q9NSN8; [1]): below the threshold
pKd (SCRIB_2, Q14160; [1]): below the threshold
pKd (MAGI2_2, Q86UL8; [1]): below the threshold
pKd (MPDZ_12, O75970; [1]): below the threshold
pKd (NOS1, P29475; [1]): below the threshold
pKd (DLG4_3, P78352; [1]): below the threshold
pKd (FRMPD2_2, Q68DX3; [1]): below the threshold
pKd (GRID2IP_1, A4D2P6; [1]): below the threshold
pKd (DLG5_1, Q8TDM6; [1]): below the threshold
pKd (MAGI2_5, Q86UL8; [1]): 4.36
pKd (PDZRN3_1, Q9UPQ7; [1]): below the threshold
pKd (DLG4_2, P78352; [1]): 4.31
pKd (LDB3, O75112; [1]): below the threshold
pKd (MAGI3_2, Q5TCQ9; [1]): below the threshold
Binder: LSDPSVSTVV [GRIN1, Q05586;Q05586-2]

pKd (GRIP1_5, Q9Y3R0; [2]): below the threshold
pKd (TIAM2, Q8IVF5; [2]): below the threshold
pKd (GRID2IP_2, A4D2P6; [2]): 3.93
pKd (TX1BP3, O14907; [2]): 3.73
pKd (FRMPD2_1, Q68DX3; [2]): 3.97
pKd (SNTG2, Q9NY99; [2]): 3.71
pKd (IL16_1, Q14005; [2]): below the threshold
pKd (NHERF3_4, Q5T2W1; [2]): below the threshold
pKd (LNX2_2, Q8N448; [2]): 4.93
pKd (SYNJ2BP, P57105): 3.7
pKd (MAGI2_3, Q86UL8; [2]): below the threshold
pKd (TJP1_2, Q07157; [2]): below the threshold
pKd (SNTG1, Q9NSN8; [2]): below the threshold
pKd (SCRIB_2, Q14160; [2]): below the threshold
pKd (MAGI2_2, Q86UL8; [2]): 4.31
pKd (MPDZ_12, O75970; [2]): below the threshold
pKd (NOS1, P29475; [2]): 4.11
pKd (DLG4_3, P78352; [2]): 3.95
pKd (FRMPD2_2, Q68DX3; [2]): 3.78
pKd (GRID2IP_1, A4D2P6; [2]): below the threshold
pKd (DLG5_1, Q8TDM6; [2]): below the threshold
pKd (MAGI2_5, Q86UL8; [2]): below the threshold
pKd (SNX27, Q96L92): below the threshold
pKd (PDZRN3_1, Q9UPQ7; [2]): 4.08
pKd (DLG4_2, P78352; [2]): 4.25
pKd (PARD3_3, Q8TEW0): below the threshold
pKd (LDB3, O75112; [2]): below the threshold
pKd (MAGI3_2, Q5TCQ9; [2]): 4.65
Binder: EMDRRPATVV [PLCB4, Q15147]
